# Laboratory results published in a protein production outcome set (Wang et al. 2014).
# Experiment: label from the status in PepcDB records
row,Sequence,protein production
1,MSDPSPIPARGRIASGGLVFLTVTTVAWGLSWPVTKYLISQWPPLPLRGLTGIAGSLALFGYAALRGDSLAVPRDQRLRLVISAFFNVTLWMAVMGLALLWLPAGETAVIAYTMPVWTALLAWPLLGERLTLRRVAALALAFGGIAALMGAAGFAASMTKLPGILLALTGALGFALGTIFLKRFPIALPGATSAAWQIGLGCIPVAVIGLAFEIPHVSVLTPLGWAGLVYLVVIQFCIAYVCWFAALQRLPASVAAIGTMATPVIGVVASAVALHEPLGVGQIAALVMTLTGVALATRS,failed
2,MSDSTLTGNAPVRRNITRKNVIIGLLLLLFVLIALWCHGRPGSELGLLEFTPLVALAILSLIGVDIVLAVISSIIIAMIMTSTGLPEMGTMLAKSTGSFIATVGLIIMLGAGVGEVATRTGAAVELVKFVVHRIGLSSQTRVKFGIVASSILICGSLGTMAGGNAIIVAVIIPVAAAVRLTPPTVAALMMTAGSVGLFTGPFTPSTVTILSLGGLSYPDYLLYVGLPMSAVTLLAGWVMAGRIQKMTEGKLRYDVDLAEKPQEDLSAAQQRRRKLSALAFAATIIVMAIVGVVIKAGFSFAIIVMLLVALMTGLVGGLRPTQILQALYHGCGRLVWMFILYWLYNPILELMDGLHAYQGLLEYTQPLLEGISPAWLCFSIFAFNIIGHVPGAAVAQMTFTHKIFGPMLMAAGVPPQGTTAVLLASSQVDWFGPFPSSDMFGQMGLAQSTHLKYMLYNGWAIVVANIILFALLFQILV,failed
3,MSDTLYIKMDQAVEITKKQVTVGDVAKLQCKNKNITNRLKSMKLLEDTTKGKKRYIVSIMKIIEMADQTFQNVDIQNIGETECVVEFKTPKKDDGPM,not failed
4,MSDVYNNEAFFKQYMKRRYRENSPNELIEKPAFFQLIGDVKGKKILDLGCGDAIFGKELLEKDCHSYTGIEGSELMYEKAKKQLENKNGIVHFLNLKDYTYPPATFDLVTSRLALHYIEHLPIIFQNVYETLKTNGTFTFSVQHPVITSSFESLQTSGKRTSWLVDDYFKTGKRVEPWIDQKVIKYHRTTEEYFTLLQQAGFTITNLKEATPNQTYFQSAEEYERRLRIPLFLLFSCRKLEHHHHHH,failed
5,MSDWNIDQAEELYGVNRWGAGYFSIGENGNIQIRPNHRLPDVTIDMKEVVDEIISEGIQFPAVIRFHDILRSQVEIINETFGKQIEEANYQGQYCGVFPIKVNQMREVVEEIMDAGEPYNYGLEAGSKPELMAVMAYNDNPEALTILNGYKDKDYLTLALLGRQLKRKMIIVIEKFSELEMLIPLAKQMGVKPMIGLRSKMMVKSSGKWAGSSGDRAKFGLSIAEILNVIERLREEDMLHCAKLLHFHIGSQLSDIRKIKEAVNEGARLYAKLVLEGMPLEYLDIGGGLGIDYDGTSTTNDSSRNYSTEEYVADVVWGVKQICDLEKVPHPNLVSESGRAMTAHHSCVVTNIVGEMKPAGTQYDISASSDEHILVKNMRELHSSGDQFHPQERYNDAAGYKQNAYEAFKLGILSLNEMAKLDTMYWQILADIHHSLDKDTYVMQELEELEDMLASQYLCNFSVFQSAADTWAIGQVLPVVPISRLNEQPEVRCSIVDITCDSDGKLSKYIEGTDISDHIPMHNLRKGEDYHVGLFLTGAYQDVMGDMHNLFGRLTEVHVYCHDDEPGDFYIEEVVPGTSAEKVLQTMQYNTEYMAKTVKKQIDRQVRKGSLAPREGVRWTNFYEHCLAGSTYLRVE,failed
6,MSEANSGPGRVTREQRGHLFLIGLDRAGKRNAFDSAMLADLALAMGEYERSEESRCAVLFAHGEHFTAGLDLMELAPKLAASGFRYPDGGVDPWGVVQPRRSKPLVVAVQGTCWTAGIELMLNADIAVAARGTRFAHLEVLRGIPPLGGSTVRFPRAAGWTDAMRYILTGDEFDADEALRMRLLTEVVEPGEELARALEYAERIARAAPLAVRAALQSAFQGRDEGDDAALSRVNESLAALIGSEDVREGVLAMV,not failed
7,MSEDAWKVNLIGNDEVHDLYTIVGNAAKQSMARDTDPMVSTILAYEGDWRKVFKRNTMTTFYGSKGFGMAQQHMDDLMEPLSREVMQKKRAKHPFGQTRKEHHAASRLLAAHAAAAIKGEIPLAIKAMEFIQKLSAMMAHEGKPLEWTTPIGLPWSNRYHDPVTERVNLWMHDHGVRRPFRPVVADGYKKTINKNHSVNGSAPNFVHALEHHHHHH,failed
8,MSEDSELIEQVIEQPDSLIISPPSDSSSSSYNHIQPFVYLESTATTQTNHNVLLILNQKITIDLISLWKKCEIIVCADGGANSLYEYFNDNNHHHHHENLQRSDYIPDYIVGDFDSISPDVKTYYESHGSKIIRQSSQYYNDFTKSIHCIQLHYQLNHTKENWFESIDEVDGLAKLWNGLNNSSDVVVDIDITIYVLNAIGGRFDQTVQSINQLYIMNEDYPKVTVFFITTNDIIFLLKKGVNYISYKNRLMFHKDNGSSPTPTCGLLPLSNKTPIILNSYGLKYDMRNWKTEMLGQVSSSNRISGETGFIVECSDDIVMNIEIDV,not failed
9,MSEEFDESEIIFSDNYFPIRRREDGNEKENNRPVDFRENSERVWNKSSRRSKTTPLPSAVTAFSSSLPVNIPMRRYSTEEEYSDDDGGRKMIPPHLIVGRRMEGGQMAFSVCTGNGRTLKGRDLSRVRNSVLKLTGFLEA,failed
10,MSEEIREVKVLEKPWVEKYRPQRLDDIVGQEHIVKRLKHYVKTGSMPHLLFAGPPGVGKCLTGDTKVIANGQLFELGELVEKLSGGRFGPTPVKGLKVLGIDEDGKLREFEVQYVYKDRTDRLIKIKTQLGRELKVTPYHPLLVNRENGEIKWIKAEELKPGDKLAIPSFLPLITGENPLAEWLGYFMGSGYAYPSNSVITFTNEDPLIRQRFMELTEKLFPDAKIRERIHADGTPEVYVVSRKAWSLVNSISLTLIPREGWKGIRSFLRAYSDCNGRIESDAIVLSTDNNDMAQQIAYALASFGIIAKMDGEDVIISGSDNIERFLNEIGFSTQSKLKEAQKLIRKTNVRSDGLKINYELISYVKDRLRLNVNDKRNLSYRNAKELSWELMKEIYYRLEELERLKKVLSEPILIDWNEVAKKSDEVIEKAKIRAEKLLEYIKGERKPSFKEYIEIAKVLGINVERTIEAMKIFAKRYSSYAEIGRKLGTWNFNVKTILESDTVDNVEILEKIRKIELELIEEILSDGKLKEGIAYLIFLFQNELYWDEITEVKELRGDFIIYDLHVPGYHNFIAGNMPTVVHNTTAALALARELFGENWRHNFLELNASDERGINVIREKVKEFARTKPIGGASFKIIFLDEADALTQDAQQALRRTMEMFSSNVRFILSCNYSSKIIEPIQSRCAIFRFRPLRDEDIAKRLRYIAENEGLELTEEGLQAILYIAEGDMRRAINILQAAAALDKKITDENVFMVASRARPEDIREMMLLALKGNFLKAREKLREILLKQGLSGEDVLVQMHKEVFNLPIEEPKKVLLADKIGEYNFRLVEGANEIIQLEALLAQFTLIGKK,failed
11,MSEEKNLVINANDSLGEIVIAPEVIEVIIGIAASKVEGVYGMRGTFANNVNELLGRAAHGKGVYLRTEEEGLKVDIYCYLNYGVSVPKVALEMQDRVKQQVLFMTDIDLVEVNIHVVAVVPEKIPQPDLNELFPEDEDGEENELEHHHHHH,not failed
12,MSEHHHDHSHDHGHAGHQYHAVGSIQIAFFMNFGFTILEAIGGVMTNSTAILANAVHDFGDSIAVGQAWYFEKLSGRTGDKRYSYGYQRFSIFGALVSALMMLASSFLVLVEAVPRLLHPEHPNAKGMVAFALVGVAVNALAMLRLKGQAGMNARVIALHLLEDVLGWLSVLLVSVVLLFTSLPILDPLLAIVITLYILTGVVKNLRAMVPVFLQAVPSELSLDKVVADIQQTEHVTGVHHAHLWSLDGQRTVFTAHLEIGCDVNPAEYASIKEEIRKLVARHGIYHSTVELEYPGEVCRNESHKDG,failed
13,MSEHPKKVVLLDLDGTLTKSDPGIIGCVVKAFEEMGYPVPDDAELHRFIGPAISESMQRNGIPDDKLDEGVRIYRKYYADEAVFDDPNNPGQKVPGRLNNTIYQGIPEQLAKLRADGYYLAIASCKPQYQCIPICEHFHLDTMVDGIYGASEDNSRLDKDQVIRWAFQHIDFDENAGDKALMVGDRWTDADGAKACGLDCLGCGWGYAEPGELKAHGAYRILDSVDELAQAVEEYFA,not failed
14,MSEILVLNCGSSSVKFALINPHTSQSLVTGLAENIATKNCKVVFKAEHKIVKYLENGSYKDVFEMLKDFLVENKHLEKIVAIGHRVVHGGQYFSKSVLINADSLEKIKACIALAPLHNPAHIEGIRFCQQIFPELPQVAVFDTAFHQTMPSYIAEYAIPYELTHKHNIRKYGAHGTSHKYVSEQAAKILTQQKANVIVAHLGNGCSITAVVDGKSIDTSMGLTPLDGLVMGTRSGCIDPSIFAYISDNLGWSVTEITNMLNKQSGLLGICGHNDMREVSQLAAKGDSLAKLAIEIFSHRVAKFVASYMIYFNKLDALVFTGGIGENAANIRKNIISKLANLGFMIDHQKNSNSETFINSKNSHNIMVIATNEELMIAQETQNLI,not failed
15,MSEKFDCHYCRDPLQGKKYVQKDGRHCCLKCFDKFCANTCVDCRKPISADAKEVHYKNRYWHDNCFRCAKCLHPLASETFVSKDGKILCNKCATREDSPRCKGCFKAIVAGDQNVEYKGTVWHKDCFTCSNCKQVIGTGSFFPKGEDFYCVTCHETKFAKHCVKCNKAITSGGITYQDQPWHAECFVCVTCSKKLAGQRFTAVEDQYYCVDCYKNFVAKKCAGCKNPITGKRTVSRVSHPVSKARKSPVCHGKRLPLTLFPSANLRGRHPGGERTCPSWVVVLYRKNRSLAAPRGPGLVKAPVWWPMKDNPGTTTASTAKNAP,failed
16,MSEKLQKVLARAGHGSRREIESIIEAGRVSVDGKIAKLGDRVEVTPGLKIRIDGHLISVRESAEQICRVLAYYKPEGELCTRNDPEGRPTVFDRLPKLRGARWIAVGRLDVNTCGLLLFTTDGELANRLMHPSREVEREYAVRVFGQVDDAKLRDLSRGVQLEDGPAAFKTIKFSGGEGINQWYNVTLTEGRNREVRRLWEAVGVQVSRLIRVRYGDIPLPKGLPRGGWTELDLAQTNYLRELVELPPETSSKVAVEKDRRRMKANQIRRAVKRHSQVSGGRRSGGRNNNG,not failed
17,MSEKREKQTKSKRRIWRGVTTATASLLTLSMSATLVIDGFRTDIDKFLGTQSTKMVTEDVSAEDYTFQSDYSSTTELLDSIEDLGERMNEEGSVLLKNENAALPLSKEETQKISLLGFSSYYPVQGGDFGSTLSENKGTDADTVDMLEAFESKGFEMNPTLKKMYQGLKEEFKSEAVLPWGVTTYYRATAPATTGVFTSLEPETATLDEAEPNWKKSMTDYNVMIVTLARAAGENANYTPGEDGVNPEQDLNQADPLGLSDTERAIIDEAVNAKKENNGKLIVMLNNASAMEIEEIKNNTGVDAILEVGLPGGYGFYGVADVLSGEVNPSGHLADTYAVDNSSSPAAQNYGNYEWTNADSAYSINSEIVEAEGIYTGYKYYETRYADTVLGQGNASDKTGSSNGKAWNYEDEVSYPFGYGLSYTTFSQTLDSLDVNLEDKTVTAKVTVKNTGDVAGKDVVQLYTSLPYTEYDKEHAVEKAAVQLLDYEKTGVLQPGESVTVEITADAQDMASWDSTCDNAAGTKGNWILDAGDYYFTVGNGSHEAVNNVLAAQGMTKANGMTDAGNAANVKKWTLDTFDSETFAYSKNGTAVENQLQDMDLNYYMPDTVTYLSRSDWKATWPKTYKDLTATDEMIEVMKNNLVEIKEQGNPDEVTFGEDNGLTLASLKGETDLTNEKWTDLIDQITLEEAMIRTGFGGTSTKSIVSIVSPEAVQNDGPNGFNSYTLGQYANTDTDSADPYVIDPDDKNLNYKFGTMSNETVIAQTFSKEMAAEYGAVTGNYSIWSNLPILWGAGTNLHRTPYNARNHEYYSEDAILTAYQAAAYIAAGKEYGCIIAPKHFAFNDTEINRSGIATFMTEQKARENELRGTQASVEDAQTLGMMTTFNRIGCTAGNAHYGLLMNILRKEWGFQGLMSEDFIQDANYSVLKEAVHCGVTMTCNTGDSNMEAVTAKWNYWTTEAVSKDASMMQDLKNVMMWQNYALANSNAMDGLNETSQIKDVRTWYDNALTATSAVLALLTLAAAAMYIRDAKRRKNS,failed
